* marks the point of attachment. Octanoyl = CCCCCCCC(=O)*; Butyryl = CCCC(=O)*
Tests used:
[1] = tested on: PTC (primary colon) tumor cells; experiment: MTT cytotoxicity assay, PTC cells; format: cell-based, human; details: 48 hours
Source text: (§1) The cytotoxic effect of Lipo peptide analogs, DT-A1 (SEQ ID NO: 2), DT-B1 (SEQ ID NO: 3), DT-01 (SEQ ID NO: 4), DT-M1 (SEQ ID NO: 5) and DT-P1 (SEQ ID NO: 6) was studied by MTT assay which is based on the principle of uptake of MTT [3-[4,5-dimethylthiazol-2-yl]-2,5-diphenyl tetrazolium bromide], a tetrazolium salt by the metabolically active cells where it is metabolized by active mitochondria into a blue colored formazan product which can be read spectrophotometrically. Briefly, tumor cells PTC (primary colon) KB (Oral squamous), U87MG (Glioblastoma), HBL100 (Breast), HeP2 (Laryngeal), ECV304 (Endothelial), PA-1 (Ovary) and L132 (Lung) were incubated with the peptide analogs for 48 hours at 37° C. in a 96-well culture plate, followed by the addition of 100 μg MTT and _further incubation of 1 hour. The formazan crystals formed inside the cells were dissolved with a detergent comprising 10% Sodium dodecyl sulfate and 0.01 N HCl and optical density read on a multiscan ELISA reader. The optical density was directly proportional to the number of proliferating and metabolically active cells.

[2] = tested on: KB (Oral squamous) tumor cells; experiment: MTT cytotoxicity assay, KB cells; format: cell-based; details: 48 hours
Source text: as §1

[3] = tested on: U87MG (Glioblastoma) tumor cells; experiment: MTT cytotoxicity assay, U87MG cells; format: cell-based; details: 48 hours
Source text: as §1

[4] = tested on: HBL100 (Breast) tumor cells; experiment: MTT cytotoxicity assay, HBL100 cells; format: cell-based; details: 48 hours
Source text: as §1

[5] = tested on: HeP2 (Laryngeal) tumor cells; experiment: MTT cytotoxicity assay, HeP2 cells; format: cell-based; details: 48 hours
Source text: as §1

L132 (Lung) tumor cells = experiment: MTT cytotoxicity assay, L132 cells; format: cell-based; details: 48 hours
Source text: as §1

PA-1 (Ovary) tumor cells = experiment: MTT cytotoxicity assay, PA-1 cells; format: cell-based; details: 48 hours
Source text: as §1

[6] = tested on: ECV304 (Endothelial) cells; experiment: MTT cytotoxicity assay, ECV304 cells; format: cell-based; details: 48 hours
Source text: as §1

[7] = tested on: human colon adenocarcinoma (PTC) xenografts; experiment: Antitumor activity in PTC xenografts in nude mice; format: in vivo
Experimental: The antitumor activity of DT-B1 (SEQ ID NO: 3) was studied in human colon adenocarcinoma (PTC) xenografts in nude mice. PTC tumor xenografts were grown in Balb/c a thymic mice by subcutaneous inoculation of a single cell suspension of PTC cells (15×10^6 cells/100 EL). The tumor bearing animals were divided into 2 groups of three animals each including one group comprising untreated control animals. Treatment with DT-B1 was initiated when the average tumor volumes, as measured using a vernier caliper, were between 1.3 cm^3. Solutions of DT-B1 was prepared at a concentration of 126 μg/ml and intravenously administered to the assigned group of tumor bearing animals at a dose of 12.6 μg/100 μL twice a day so that the total dose of 25.2 μg/day was administered to each animal. The treatment was continued for a period of 14 days.
The antitumor activity of the compounds was monitored by measuring tumor volumes every fourth day using the formula W*W*L*0.4 (W=smaller diameter, L=larger diameter). The percentage inhibition of tumor growth was calculated using the formula (1-tumor volume-treated/tumor volume-control)* 100.

Substance	Percentage cytotoxicity ([1]; 1 nM) [%]	Percentage cytotoxicity ([1]; 10 nM) [%]	Percentage cytotoxicity ([1]; 100 nM) [%]	Percentage cytotoxicity ([1]; 1 μM) [%]	Percentage cytotoxicity ([2]; 1 nM) [%]	Percentage cytotoxicity ([2]; 10 nM) [%]	Percentage cytotoxicity ([2]; 100 nM) [%]	Percentage cytotoxicity ([2]; 1 μM) [%]	Percentage cytotoxicity ([3]; 1 nM) [%]	Percentage cytotoxicity ([3]; 10 nM) [%]	Percentage cytotoxicity ([3]; 100 nM) [%]	Percentage cytotoxicity ([3]; 1 μM) [%]	Percentage cytotoxicity ([4]; 1 nM) [%]	Percentage cytotoxicity ([4]; 10 nM) [%]	Percentage cytotoxicity ([4]; 100 nM) [%]	Percentage cytotoxicity ([5]; 1 nM) [%]	Percentage cytotoxicity ([5]; 10 nM) [%]	Percentage cytotoxicity ([5]; 100 nM) [%]	Percentage cytotoxicity ([5]; 1 μM) [%]	Percentage cytotoxicity (L132 (Lung) tumor cells; 1 nM) [%]	other results
n-Butanoyl-Leu-Met-Tyr-Pro-Thr-Tyr-Leu-Lys-OH (Butyryl-LMYPTYLK-OH) [DT-B1]	36 ± 1.0	44 ± 1.3	48 ± 1.7	31 ± 1.5	21.9 ± 0.5	25.9 ± 4.1	18.9 ± 3.2	14.8 ± 2.3	33.9 ± 0.6	39.7 ± 2.7	30.7 ± 1.7	20.6 ± 1.7	33.0 ± 1.5	34.8 ± 1.8	33.9 ± 2.8	8.7 ± 1.5	22.9 ± 1.6	14.9 ± 5.3	12.9 ± 4.4	13.9 ± 1.9	Percentage cytotoxicity ([4]; 1 μM): 32.8 ± 2.2%; Percentage cytotoxicity (L132 (Lung) tumor cells; 10 nM): 26.8 ± 1.9%; Percentage cytotoxicity (L132 (Lung) tumor cells; 100 nM): 10.7 ± 2.6%; Percentage cytotoxicity (L132 (Lung) tumor cells; 1 μM): 11.8 ± 2.3%; Percentage cytotoxicity (PA-1 (Ovary) tumor cells; 1 nM): 43.9 ± 2.9%; Percentage cytotoxicity (PA-1 (Ovary) tumor cells; 10 nM): 45.8 ± 1.2%; Percentage cytotoxicity (PA-1 (Ovary) tumor cells; 100 nM): 38.5 ± 1.6%; Percentage cytotoxicity (PA-1 (Ovary) tumor cells; 1 μM): 33.7 ± 1.6%; Percentage cytotoxicity ([6]; 1 nM): 18.7 ± 5.3%; Percentage cytotoxicity ([6]; 10 nM): 19.9 ± 4.2%; Percentage cytotoxicity ([6]; 100 nM): 31.9 ± 2.8%; Percentage cytotoxicity ([6]; 1 μM): 25.8 ± 2.3%; percentage inhibition of tumor growth as compared to controls ([7]; day 20, intravenous 12.6 μg twice a day (25.2 μg/day) for 14 days, PTC xenografts in nude mice): 95.85%; antitumor activity on PTC xenografts (in words) ([7]; intravenous 25.2 μg/day for 14 days, tumor kinetics till day 20): significant antitumor activity
n-Octanoyl-Leu-Met-Tyr-Pro-Thr-Tyr-Leu-Lys-OH (Octanoyl-LMYPTYLK-OH) [DT-O1]	28 ± 5.4	32 ± 0.3	33 ± 3.2	29 ± 5.5	21.0 ± 0.6	34.9 ± 3.1	26.9 ± 2.2	23.9 ± 1.3	37.0 ± 1.6	38.7 ± 1.7	28.6 ± 1.2	21.9 ± 1.5	30.0 ± 1.4	33.7 ± 2.8	32.8 ± 2.8	8.6 ± 2.5	22.9 ± 1.2	17.9 ± 2.3	18.8 ± 4.2	19.4 ± 2.9	Percentage cytotoxicity (L132 (Lung) tumor cells; 10 nM): 25.9 ± 1.7%; Percentage cytotoxicity (L132 (Lung) tumor cells; 100 nM): 14.9 ± 2.5%; Percentage cytotoxicity (L132 (Lung) tumor cells; 1 μM): 7.9 ± 2.3%; Percentage cytotoxicity (PA-1 (Ovary) tumor cells; 1 nM): 26.0 ± 3.9%; Percentage cytotoxicity (PA-1 (Ovary) tumor cells; 10 nM): 37.8 ± 2.2%; Percentage cytotoxicity (PA-1 (Ovary) tumor cells; 100 nM): 22.6 ± 3.6%; Percentage cytotoxicity (PA-1 (Ovary) tumor cells; 1 μM): 6.0 ± 1.4%; Percentage cytotoxicity ([6]; 1 nM): 16.9 ± 1.3%; Percentage cytotoxicity ([6]; 10 nM): 27.9 ± 3.2%; Percentage cytotoxicity ([6]; 100 nM): 24.9 ± 2.4%; Percentage cytotoxicity ([6]; 1 μM): 23.9 ± 2.2%

Reference: patent US6828304B1, “Peptides for treatment of cancer” (Dabur Research Foundation, priority 2000, dated 2004)
